Results published in patent US20160362487A1 (Regeneron, published 2016).

T1: human IL-33 (R&D Systems, #3625-IL-010/CF) (human, UniProt O95760 112-270)
T1 sequence (looked up): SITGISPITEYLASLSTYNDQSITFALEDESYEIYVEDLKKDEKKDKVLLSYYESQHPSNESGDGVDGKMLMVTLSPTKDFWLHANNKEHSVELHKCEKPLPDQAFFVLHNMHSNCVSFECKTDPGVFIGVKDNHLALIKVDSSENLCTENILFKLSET

T2: cynomolgus monkey IL-33 expressed with a C-terminal hexahistidine tag (cynomolgus monkey)
T2 construct: also called MfIL-33-6His; Mf-IL-33-6His
T2 chain: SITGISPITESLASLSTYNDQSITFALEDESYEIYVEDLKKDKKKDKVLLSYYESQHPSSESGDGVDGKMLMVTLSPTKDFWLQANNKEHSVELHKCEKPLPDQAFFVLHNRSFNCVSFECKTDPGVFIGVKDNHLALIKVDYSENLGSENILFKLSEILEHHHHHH

B1: H4H9659P (antibody, human IgG4, V domains shown)
VH: QVQLVQSGAEVKKPGASVKVSCKASGYTFNSYGISWVRQAPGQGLEWMGWISSHNGNSHYVQKFQGRVSMTTDTSTSTAYMELRSLRSDDTAVYYCARHSYTTSWYGGFDYWGQGTLVTVSS
VL: DIQMTQSPSSVSASVGDRVTITCRASQGFSSWLAWYQQKPGKAPQLLIYAASSLQSGVPSRFSGSGSGSDFTLTISSLQPEDFATYYCQQANSFPLTFGGGTKVEIK
notes: Human IgG4 Fc (H4H)
B2: H4H9667P (antibody, human IgG4, V domains shown)
VH: EVQLVESGGGLVQPGGSLRLSCAASGFTFSTYSMHWVRQAPGKGLEYVSTINNNGDTTYYADSVKGRFTISRDNSKNTLYLQLGSLRPEDMAVYYCARQTYTSSWYGGFDSWGQGTLVTVSS
VL: DIQMTQSPSSVSASVGDRVTITCRASQGITSWLAWYQQKPGKAPKLLIYAASNLQSGVPSRFSGSGSGTDFTLTITSLQPEDFATYYCQQANSLPFTFGPGTKVDIK
notes: Human IgG4 Fc (H4H)
B3: H4H9665P (antibody, human IgG4, V domains shown)
VH: EVQLVESGGGLVQPGGSLRLSCAASGFTFSNYAMTWVRQAPGKGLEWVSTISGSGDNTYYADSVQGRFTISRGHSKNTLYLQMNSLRAEDTAVYYCAKPTYSRSWYGAFDFWGQGTMVTVSS
VL: DIQMTQSPSSVSASVGDRVTITCRASQGISSWLAWYQQKPGKAPQLLIYAASRLQSGVPSRFWGSGSGTDFTLTISSLQPEDFATYYCQQANNFPFTFGPGTKVDIK
notes: Human IgG4 Fc (H4H)
B4: H4H9671P (antibody, human IgG4, V domains shown)
VH: EVQLVESGGGLVQPGGSLRLSCAASGFTLRSYFMTWVRQVPGKGLEGVSAISGISGGTYYTDSVKGRFTISRDNSKNTLFLQMNSLRAEDTAVYFCARTVYSSSYYGGFQHWGQGTLVTVSS
VL: DIQMTQSPSSVSVSVGDRVTITCRASQGISSWLAWYQQKPGKAPKLLIYVASSLQSGVPSRFSGSGSGTDFTLTISSLQPEDFATYYCQQTNSFPLTFGGGTKVEIK
notes: Human IgG4 Fc (H4H)
B5: H4H9675P (antibody, human IgG4, V domains shown)
VH: EVQLVESGGNLEQPGGSLRLSCTASGFTFSRSAMNWVRRAPGKGLEWVSGISGSGGRTYYADSVKGRFTISRDNSKNTLYLQMNSLSAEDTAAYYCAKDSYTTSWYGGMDVWGHGTTVTVSS
VL: DIQMTQSPSSVSASVGDRVTITCRASQGIFSWLAWYQQKPGKAPKLLIYAASSLQSGVPSRFSGSGSGTDFTLTISSLQPEDFAIYYCQQANSVPITFGQGTRLEIK
notes: Human IgG4 Fc (H4H)

Assays:
[1] = target: T1, human IL-33 (R&D Systems, …); test: cell-based or functional assay
[2] = target: T1, human IL-33 (R&D Systems, …); test: cell-based or functional assay; remark: listed apart in the source
[3] = target: T1, human IL-33 (R&D Systems, …); test: BLI; hIL-33 pre-mixed with mAb-2 Isotype control 2
Method: Binding competition between a panel of different anti-IL-33 monoclonal antibodies was determined using a real time, label-free bio-layer interferometry assay on an Octet® HTX biosensor (ForteBio, A Division of Pall Life Sciences). The experiment was performed at 25° C. using a buffer of 0.01M HEPES pH7.4, 0.15M NaCl, 0.05% v/v Surfactant Tween-20, and 0.1 mg/ml BSA (HBS-ET kinetics buffer) with the plate shaking at a speed of 1000 rpm. To assess whether two antibodies were able to compete with one another for binding to human IL-33, a pre-mix assay format was used where 100 nM of human IL-33 (R&D Systems; #3625-IL-010/CF) was pre-mixed with 500 nM of different anti-IL-33 monoclonal antibodies (subsequently referred to as mAb-2) for at least 2 hours prior to running the binding competition assay. […] Following the capture step, unoccupied anti-mouse Fc polyclonal antibody and anti-human Fc polyclonal antibody on the Octet biosensors were saturated by submerging them for 4 minutes into wells containing 200 μg/mL of a non-specific monoclonal antibody with a mouse Fc or with a human Fc, respectively. Finally, the Octet biosensors were immersed for 4 minutes into wells containing the pre-mixed samples of 100 nM of human IL-33 and 500 nM of mAb-2. At the end of each cycle, the non-covalently captured anti-IL-33 antibodies along with the bound pre-complex of human IL-33 and mAb-2 were removed from the biosensors using three alternate 20 second immersions into 10 mM HCl followed by submerging into HBS-ET kinetics buffer. The biosensors were washed in HBS-ET kinetics buffer in between every step of the experiment. The real-time binding response was monitored during the binding events, and the binding response (in units of nm) at the end of every step was recorded.

[4] = target: T2, cynomolgus monkey IL-33 expressed with …; test: SPR 25C, pH6.0 chase, mAb captured
Method: (§1) Equilibrium dissociation constants (KD values) for IL-33 binding to purified anti-IL-33 monoclonal antibodies were determined using a real-time surface plasmon resonance biosensor using a Biacore 4000 instrument. The Biacore sensor surface was first derivatized by amine coupling with either a polyclonal rabbit anti-mouse antibody (GE, # BR-1008-38) or with a monoclonal mouse anti-human Fc antibody (GE, # BR-1008-39) to capture anti-IL-33 monoclonal antibodies expressed with mouse or with human IgG4 constant regions, respectively. All Biacore binding studies were performed in 0.01M ADA pH 7.4, 0.15M NaCl, 3 mM EDTA, and 0.05% v/v Surfactant Tween-20 (ABS-ET running buffer). […] Association of either hIL-33 or MfIL-33-6His to the captured monoclonal antibody was monitored for 4 minutes and their dissociation in ABS-ET running buffer was monitored for 10 minutes. The effect of reduced pH on the binding of each anti-IL-33 antibody to either hIL-33 or MfIL-33-6His was studied using an in-line pH chase assay format in 0.01M ADA pH 6.0, 0.15M NaCl, 3 mM EDTA, and 0.05% v/v Surfactant Tween-20 (ABS-ET pH6 buffer). To achieve this, association of either hIL-33 or MfIL-33-6His to the captured monoclonal antibody was monitored for 4 minutes in ABS-ET running buffer. Following a 30 second dissociation of either hIL-33 or MfIL-33-6His in ABS-ET running buffer, ABS-ET pH6 buffer was injected for 3 minutes, and the analyte dissociation under the low-pH conditions was measured. All the binding kinetic experiments were performed at both 25° C. and 37° C. Kinetic association (kₐ) and dissociation (kd) constants were determined by fitting the real-time sensorgrams to a 1:1 binding model using Scrubber 2.0c curve fitting software. Binding dissociation equilibrium constants (KD) and dissociative half-lives (t½) were calculated from the kinetic rate constants as: […]

[5] = target: T1, human IL-33 (R&D Systems, …); test: SPR 25C, pH6.0 chase, mAb captured
Method: as §1

[6] = target: T2, cynomolgus monkey IL-33 expressed with …; test: BLI; captured MfIL-33-6His, mAb-1 step with Isotype control
Method: Binding competition between a panel of different anti-IL-33 monoclonal antibodies was determined using a real time, label-free bio-layer interferometry assay on an Octet® HTX biosensor (ForteBio, A Division of Pall Life Sciences). The experiment was performed at 25° C. using a buffer of 0.01M HEPES pH7.4, 0.15M NaCl, 3 mM EDTA, 0.05% v/v Surfactant Tween-20, and 0.1 mg/ml BSA (HBS-ET kinetics buffer) with the plate shaking at a speed of 1000 rpm. […] The antigen-captured biosensors were then saturated with a first anti-IL-33 monoclonal antibody (subsequently referred to as mAb-1) by immersion into wells containing 50 μg/mL solution of mAb-1 for 5 minutes. The biosensors were then dipped into wells containing a 50 μg/mL solution of a second anti-IL-33 monoclonal antibody (subsequently referred to as mAb-2) for 4 minutes. The biosensors were washed in HBS-ET kinetics buffer in between every step of the experiment. The real-time binding response was monitored during the experiment, and the maximum binding response for each binding step was recorded. The response of mAb-2 binding to MfIL-33-6His pre-complexed with mAb-1 was measured, and competitive/non-competitive behavior of different anti-IL-33 monoclonal antibodies with respect to each other was determined.

Binder	IC50, blocking of human basophil degranulation induced by 100 pM human IL-33, donor 655687 [1] [M]	IC50, blocking of human basophil degranulation induced by 100 pM human IL-33, donor 655688 [1] [M]	IC50, blocking of IFN-γ release from human PBMC induced by 260 pM hIL-33, donor #603486 [2] [M]	IC50, blocking of IFN-γ release from human PBMC induced by 260 pM hIL-33, donor #603487 [2] [M]	mAb-1 Binding to the Pre-complex of mAb-2 & hIL-33 [3] [nm]	koff [4] [s⁻¹]	t½ [4] [min]	t½ Ratio (pH 7.4/pH 6.0) [4]	koff [5] [s⁻¹]	t½ [5] [min]	t½ Ratio (pH 7.4/pH 6.0) [5]	mAb-2 Binding to the Pre-complex of mAb-1 & MfIL-33-6xHis [6] [nm]
B1	5.79e-10	4.47e-10	1.25e-09	2.71e-09	0.09	0.000123	94	0.3	0.000664	17	3.9	0.25
B2	–	–	8.07e-09	1.88e-08	0.12	0.000696	17	0.7	0.000566	20	2.2	0.26
B3	–	–	1.04e-08	2.34e-08	0.09	0.000753	15	1.3	0.00212	5	4.5	0.3
B4	–	–	2.97e-09	8.62e-09	0.07	0.00161	7	1.1	0.00162	7	4.6	0.26
B5	1.33e-10	9.71e-11	1.75e-10	4.71e-10	0.11	0.00156	7	1.2	0.00111	10	4.3	0.26
